Source: PMC2174254 (The Journal of Cell Biology, 1999)

What was measured:
Assay in all cases: cross-linking
[1] = biological target: T1, PDI deletion mutant Δ222–302 (S. cerevisiae, UniProt P17967 29-522, Δ222–302, N-glycosylated (endoglycosidase H sensitive))
T1 sequence (looked up): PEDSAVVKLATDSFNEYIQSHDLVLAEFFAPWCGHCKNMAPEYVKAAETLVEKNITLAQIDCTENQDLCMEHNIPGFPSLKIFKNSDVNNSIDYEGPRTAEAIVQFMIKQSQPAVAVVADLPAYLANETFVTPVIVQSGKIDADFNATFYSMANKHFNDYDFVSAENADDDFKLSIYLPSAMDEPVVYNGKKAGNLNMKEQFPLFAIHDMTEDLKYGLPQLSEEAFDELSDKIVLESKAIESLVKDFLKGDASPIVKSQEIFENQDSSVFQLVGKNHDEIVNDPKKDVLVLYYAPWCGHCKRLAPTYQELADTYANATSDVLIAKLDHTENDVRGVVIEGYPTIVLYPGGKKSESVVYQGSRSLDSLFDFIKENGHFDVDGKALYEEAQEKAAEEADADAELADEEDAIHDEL

[2] = biological target: T2, PDI deletion mutant Δ252–277 (S. cerevisiae, UniProt P17967 29-522, Δ252–277, N-glycosylated (endoglycosidase H sensitive))
T2 sequence (looked up): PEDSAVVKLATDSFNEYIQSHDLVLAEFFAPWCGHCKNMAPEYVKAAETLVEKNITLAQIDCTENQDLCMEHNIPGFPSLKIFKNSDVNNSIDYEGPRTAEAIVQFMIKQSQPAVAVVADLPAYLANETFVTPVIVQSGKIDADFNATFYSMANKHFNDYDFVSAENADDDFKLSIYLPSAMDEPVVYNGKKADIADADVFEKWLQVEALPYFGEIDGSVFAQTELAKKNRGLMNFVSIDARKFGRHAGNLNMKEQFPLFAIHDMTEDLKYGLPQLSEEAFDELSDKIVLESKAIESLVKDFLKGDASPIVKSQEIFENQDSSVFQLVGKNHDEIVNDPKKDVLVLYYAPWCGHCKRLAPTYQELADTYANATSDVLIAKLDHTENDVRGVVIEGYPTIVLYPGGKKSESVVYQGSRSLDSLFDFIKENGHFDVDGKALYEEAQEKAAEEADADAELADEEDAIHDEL

[3] = biological target: T1, PDI deletion mutant Δ222–302; remark: listed apart in the source
[4] = biological target: T2, PDI deletion mutant Δ252–277; remark: listed apart in the source

B1: BiP, heavy chain binding protein (natural protein)
chain: not shown
fold decrease of BiP coimmunoprecipitated with Δgpαf present against absent [1]: 4.7 fold | fold reduction of BiP coimmunoprecipitated with Δgpαf present against absent [2]: 1.3 fold | BiP immunoprecipitated relative to wild-type PDI [3]: 2.7 fold | fold reduction of affinity compared with wild-type PDI [4]: ~2.8 fold
